# Where two headings read alike, the source gives them in different places.
# Key:
# [1] = biological target: T1, Pf-SSB (wild type, lacks apicoplast localization signal) (Plasmodium falciparum 3D7, UniProt Q8I415 77-284); assay: Trp fluorescence quenching titration
# Pf-SSB crystallized form = Pf-SSB crystallized form (Plasmodium falciparum 3D7, UniProt Q8I415 77-194); assay: X-ray crystallography
# [2] = biological target: T1, Pf-SSB (wild type, lacks apicoplast …); assay: Trp fluorescence quenching titration; remark: listed apart in the source
Binder,binding result [1],binding result (Pf-SSB crystallized form),binding result [2]
(dT)70 (ssDNA) DNA: TTTTTTTTTTTTTTTTTTTTTTTTTTTTTTTTTTTTTTTTTTTTTTTTTTTTTTTTTTTTTTTTTTTTTT,binds,,
TTTTTTTTTTTTTTTTTTTTTTTTTTTTTTTTTTT (ssDNA) [(dT)35],,binds,binds

# From publication PMC4017622
